The results in this text go back to patent US20160237095A1 (KADMON, published 2016).

For assay [1], the target named is T1, murine VEGFR2 (murine, UniProt P35918 20-762, limits assumed).
T1 construct: Antigen in the ELISA and Biacore assays; also called mVEGFR2; mouse VEGFR2
The experiment in a line: blocking ELISA, mVEGF binding to mVEGFR2 (right panel) [continued) B]. (In general: ELISA stands for enzyme-linked immunosorbent assay.)

For assay [2], the target named is T1, murine VEGFR2. The experiment in a line: ELISA, binding to mVEGFR2 (right panel); detected with a different secondary antibody.
For assay [3], the target named is T1, murine VEGFR2. Put plainly: Biacore. A general note: Surface plasmon resonance follows binding to a sensor surface in real time, without labels.
Assay [4] addresses T2, human VEGFR2 (human, UniProt P35968 20-764, limits assumed).
T2 construct: Antigen in the ELISA and Biacore assays; also called hVEGFR2; KDR
Put plainly: Biacore.

Another assay deals with T3, rat VEGFR2 (rat, UniProt O08775 20-760, limits assumed).
T3 construct: Antigen in the Biacore assay
T3 sequence (O08775 20-760 limits assumed): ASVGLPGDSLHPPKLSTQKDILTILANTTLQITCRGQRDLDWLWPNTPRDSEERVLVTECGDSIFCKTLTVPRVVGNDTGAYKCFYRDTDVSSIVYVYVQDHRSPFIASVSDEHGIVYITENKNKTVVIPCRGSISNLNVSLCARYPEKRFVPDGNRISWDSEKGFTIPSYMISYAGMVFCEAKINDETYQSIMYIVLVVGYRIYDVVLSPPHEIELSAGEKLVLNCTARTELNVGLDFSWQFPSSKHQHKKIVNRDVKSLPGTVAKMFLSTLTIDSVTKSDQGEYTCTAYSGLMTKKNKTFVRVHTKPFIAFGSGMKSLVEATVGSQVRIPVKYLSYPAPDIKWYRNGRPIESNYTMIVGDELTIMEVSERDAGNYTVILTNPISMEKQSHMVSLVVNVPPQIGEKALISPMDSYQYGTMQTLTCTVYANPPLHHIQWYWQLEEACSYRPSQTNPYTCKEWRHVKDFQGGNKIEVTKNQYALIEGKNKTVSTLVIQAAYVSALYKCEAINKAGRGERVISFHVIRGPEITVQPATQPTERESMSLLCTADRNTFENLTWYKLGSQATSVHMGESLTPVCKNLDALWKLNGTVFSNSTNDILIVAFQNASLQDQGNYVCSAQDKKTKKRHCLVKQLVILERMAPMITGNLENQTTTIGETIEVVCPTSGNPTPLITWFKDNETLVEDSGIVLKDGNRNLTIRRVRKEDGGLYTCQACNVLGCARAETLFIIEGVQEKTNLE
The experiment in a line: Biacore.

Assay [5] has as its target T4, human VEGFR2 expressed on HUVEC and on KDR-PAE cells (human, UniProt P35968 20-1356).
T4 construct: whole, on cells; also called hVEGFR2; hVEGR2
The experiment in a line: cell binding (MFI), KDR-PAE cells.

Assay [6] concerns the target T2, human VEGFR2. Put plainly: ELISA, binding to hVEGFR2 (left panel).
Assay [7] concerns the target T2, human VEGFR2. Put plainly: blocking ELISA, hVEGF binding to hVEGFR2 (left panel) [continued) B].
Assay [8] concerns the target T1, murine VEGFR2. Put plainly: ELISA, binding to mVEGFR2 (right panel).

T2 sequence (P35968 20-764 limits assumed): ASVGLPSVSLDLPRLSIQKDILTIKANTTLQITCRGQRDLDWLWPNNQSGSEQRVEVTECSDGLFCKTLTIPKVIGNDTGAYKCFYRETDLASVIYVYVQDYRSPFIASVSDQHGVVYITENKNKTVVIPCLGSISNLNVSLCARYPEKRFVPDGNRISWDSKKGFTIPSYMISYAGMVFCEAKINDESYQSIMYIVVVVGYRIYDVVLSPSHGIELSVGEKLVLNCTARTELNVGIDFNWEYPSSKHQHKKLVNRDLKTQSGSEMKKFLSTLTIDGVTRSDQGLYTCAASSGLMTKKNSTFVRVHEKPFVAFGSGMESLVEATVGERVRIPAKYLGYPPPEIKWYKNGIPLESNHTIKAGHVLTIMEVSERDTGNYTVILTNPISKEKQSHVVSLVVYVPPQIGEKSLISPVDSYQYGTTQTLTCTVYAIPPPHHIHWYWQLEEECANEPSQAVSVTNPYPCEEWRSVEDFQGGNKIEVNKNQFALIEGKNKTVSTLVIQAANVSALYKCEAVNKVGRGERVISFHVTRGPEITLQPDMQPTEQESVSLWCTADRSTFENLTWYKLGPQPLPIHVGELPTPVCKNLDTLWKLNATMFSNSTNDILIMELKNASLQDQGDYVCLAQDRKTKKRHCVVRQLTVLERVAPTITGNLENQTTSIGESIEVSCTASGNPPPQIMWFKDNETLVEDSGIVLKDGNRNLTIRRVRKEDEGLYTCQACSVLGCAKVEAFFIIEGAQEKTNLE
T1 sequence (P35918 20-762 limits assumed): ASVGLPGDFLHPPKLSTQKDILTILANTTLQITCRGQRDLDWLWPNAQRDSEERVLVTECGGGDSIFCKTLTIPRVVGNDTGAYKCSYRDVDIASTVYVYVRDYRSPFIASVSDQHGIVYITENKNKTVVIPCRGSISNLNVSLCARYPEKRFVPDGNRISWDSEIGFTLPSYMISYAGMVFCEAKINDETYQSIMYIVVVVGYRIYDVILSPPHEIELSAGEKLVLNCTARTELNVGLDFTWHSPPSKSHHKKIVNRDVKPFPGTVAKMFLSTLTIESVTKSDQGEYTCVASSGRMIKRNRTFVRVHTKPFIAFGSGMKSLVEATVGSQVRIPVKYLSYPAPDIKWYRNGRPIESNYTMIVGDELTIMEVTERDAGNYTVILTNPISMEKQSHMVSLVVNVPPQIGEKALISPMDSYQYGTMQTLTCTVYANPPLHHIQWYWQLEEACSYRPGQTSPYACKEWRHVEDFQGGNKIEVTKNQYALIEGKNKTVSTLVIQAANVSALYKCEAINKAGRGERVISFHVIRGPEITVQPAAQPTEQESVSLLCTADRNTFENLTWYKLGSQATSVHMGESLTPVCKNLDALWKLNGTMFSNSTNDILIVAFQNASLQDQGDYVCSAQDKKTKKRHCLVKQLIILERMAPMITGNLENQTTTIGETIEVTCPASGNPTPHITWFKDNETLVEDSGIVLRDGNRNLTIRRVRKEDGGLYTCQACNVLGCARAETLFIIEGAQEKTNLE
T4 sequence (P35968 20-1356): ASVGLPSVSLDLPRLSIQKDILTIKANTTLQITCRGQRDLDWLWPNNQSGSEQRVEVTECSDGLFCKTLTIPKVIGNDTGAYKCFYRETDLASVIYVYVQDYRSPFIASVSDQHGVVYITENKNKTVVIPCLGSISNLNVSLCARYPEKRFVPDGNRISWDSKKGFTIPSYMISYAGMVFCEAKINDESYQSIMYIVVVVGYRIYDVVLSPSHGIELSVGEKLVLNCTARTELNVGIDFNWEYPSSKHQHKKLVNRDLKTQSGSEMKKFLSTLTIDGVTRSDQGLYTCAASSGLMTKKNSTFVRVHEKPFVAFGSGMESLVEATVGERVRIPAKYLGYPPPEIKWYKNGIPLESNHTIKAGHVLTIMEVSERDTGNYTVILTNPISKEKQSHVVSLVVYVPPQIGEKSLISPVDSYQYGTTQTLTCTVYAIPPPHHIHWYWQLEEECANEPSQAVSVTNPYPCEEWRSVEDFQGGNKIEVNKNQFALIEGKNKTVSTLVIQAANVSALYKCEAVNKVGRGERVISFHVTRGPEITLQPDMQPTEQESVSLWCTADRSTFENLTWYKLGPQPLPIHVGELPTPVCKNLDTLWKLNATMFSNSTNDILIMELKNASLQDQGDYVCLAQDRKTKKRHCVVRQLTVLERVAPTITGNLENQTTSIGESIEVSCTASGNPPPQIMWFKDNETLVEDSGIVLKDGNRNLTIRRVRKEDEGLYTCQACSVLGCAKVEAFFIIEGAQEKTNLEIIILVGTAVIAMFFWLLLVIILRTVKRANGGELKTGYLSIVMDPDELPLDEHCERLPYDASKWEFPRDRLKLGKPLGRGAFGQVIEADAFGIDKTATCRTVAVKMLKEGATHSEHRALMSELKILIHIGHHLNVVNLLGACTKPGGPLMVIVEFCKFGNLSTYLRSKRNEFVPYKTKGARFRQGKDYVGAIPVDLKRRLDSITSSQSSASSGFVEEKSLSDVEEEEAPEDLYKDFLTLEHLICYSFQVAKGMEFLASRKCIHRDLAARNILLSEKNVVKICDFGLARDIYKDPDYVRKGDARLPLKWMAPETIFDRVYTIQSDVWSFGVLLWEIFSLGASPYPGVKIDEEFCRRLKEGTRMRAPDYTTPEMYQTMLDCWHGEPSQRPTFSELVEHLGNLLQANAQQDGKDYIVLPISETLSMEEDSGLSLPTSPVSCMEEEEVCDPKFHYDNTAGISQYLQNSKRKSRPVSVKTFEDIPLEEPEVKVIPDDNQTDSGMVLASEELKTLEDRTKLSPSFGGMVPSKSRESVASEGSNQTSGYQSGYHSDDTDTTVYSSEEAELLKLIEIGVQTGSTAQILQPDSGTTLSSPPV

B1: DC 101 (a murine monoclonal Ab that binds to murine VEGFR2) (antibody, V domains shown)
VH: EVQLVETGGGLVQPGNSLKLSCATSGFIFSTTWMNWIRQTPGKRLEWLAQIEDKSNNYFISYSESVKGRFTISRDDSKSSVYLQMNNLKEEDTAIYYCSWKYRSNYYFDYWGQGVMVTVSS
VL: DIVLTQSPALAVSLEQRATISCKTSQNVDYYGISYLHWYQQKPGQQPKLLIYEGSNLASGIPARFSGSGSGTDFTLTIDPVEADDIVTYYCQQSKDYPYTFGAGTKLELK
On to B1, for which the “IC50 (read off the curve)” value with murine VEGFR2 [1] was approximately 0.6 nM. The “EC50 (read off the curve)” value with murine VEGFR2 [2] was approximately 0.3 nM.

B2: Mab 149 (antibody, V domains shown)
VH: EVQLLESGGGLVQPGGSLRLSCAASGFTFSWYVMGWVRQAPGKGLEWVSSIYPSGGATNYADSVKGRFTISRDNSKNTLYLQMNSLRAEDTAVYYCARGNYLDYWGQGTLVTVSS
VL: DIQMTQSPGTLSLSPGEGATLSCRASQSVSSNYFGWYQQKPGQAPRLLIYGASSRATGIPDRFSGSGSGTDFTLTISRLEPEDSAVYYCQQFDSSPLSFGGGTKVEIKR
In the case of B2, the values for the Kd in the assay with murine VEGFR2 [3], with human VEGFR2 [4] and with rat VEGFR2 were 79.2 nM, 7.65 nM and 43.1 nM, respectively.

B3: Mab 138 (antibody, V domains shown)
VH: EVQLLESGGGLVQPGGSLRLSCAASGFTFSWYVMGWVRQAPGKGLEWVSSIYPSGGATNYADSVKGRFTISRDNSKNTLYLQMNSLRAEDTAVYYCARGNYFDYWGQGTLVTVSS
VL: DIQMTQSPGTLSLSPGDRATLSCRASQSVSSNYLAWYQQKPGQAPRVLIYGASTRATGIPDRFTGSGSGTDFTLTISRLEPEDSAVYYCQQFDSSPLSFGGGTKVEIKR
As for B3, the affinity with rat VEGFR2, expressed as Kd, was 31.2 nM.

B4: Mab 147 (antibody, V domains shown)
VH: EVQLLESGGGLVQPGGSLRLSCAASGFTFSWYVMGWVRQAPGKGLEWVSSIYPQGGATSYADSVKGRFTISRDNSKNTLYLQMNSLRAEDTAVYYCARGNYFDYWGQGTLVTVSS
VL: DIQMTQSPGTLSLSPGEGATLSCRASQSVSSNYFGWYQQKPGQAPRLLIYGASSRATGIPDRFSGSGSGTDFTLTISRLEPEDSAVYYCQQFDSLPLTFGGGTKVEIKR
Consider B4, for which the equilibrium dissociation constant (Kd) with murine VEGFR2 [3] was determined as 29.4 nM; in the assay with human VEGFR2 [4], 2.51 nM; in the assay with rat VEGFR2, 13.9 nM. Moreover, the “IC50 (read off the curve)” value with murine VEGFR2 [1] is approximately 0.5 nM; with human VEGFR2 [7], approximately 0.4 nM. The “EC50 (read off the curve)” value in assay [5] is approximately 0.3 nM; with human VEGFR2 [6], approximately 0.1 nM; in the assay with murine VEGFR2 [8], approximately 0.1 nM.

For orientation: EC50 (read off the curve) means the concentration at which the effect is half-maximal. A high value points to a less potent agent. The term Kd denotes the equilibrium constant for the complex coming apart. The low end stands for a tighter complex, the high end for a looser complex.
